Test results taken from article PMC9952896.

Key:
[1] = molecular target: HSP-CGFP [GFP: P42212]; experiment: split reporter (BiFC, NanoBiT); split-GFP reassembly competition assay, GFP variant sg100: E. coli T7 cells co-transformed with the NGFP plasmid, the CGFP plasmid and p17Tet with a competitor or p17Tet-stop; 0.5 mM IPTG and 2% arabinose, overnight to 72 h at 17 °C; fluorescence (arbitrary units) divided by OD600 of cells resuspended in PBS, triplicates
[2] = molecular target: XD-CGFP (not His-tagged) (measles virus | not stated) (UniProt P03422); experiment: as above
[3] = molecular target: HSP (hsp70) (Homo sapiens) (UniProt P0DMV8); settings: cited from earlier work
UniProt P0DMV8, sequence (P0DMV8 2-641): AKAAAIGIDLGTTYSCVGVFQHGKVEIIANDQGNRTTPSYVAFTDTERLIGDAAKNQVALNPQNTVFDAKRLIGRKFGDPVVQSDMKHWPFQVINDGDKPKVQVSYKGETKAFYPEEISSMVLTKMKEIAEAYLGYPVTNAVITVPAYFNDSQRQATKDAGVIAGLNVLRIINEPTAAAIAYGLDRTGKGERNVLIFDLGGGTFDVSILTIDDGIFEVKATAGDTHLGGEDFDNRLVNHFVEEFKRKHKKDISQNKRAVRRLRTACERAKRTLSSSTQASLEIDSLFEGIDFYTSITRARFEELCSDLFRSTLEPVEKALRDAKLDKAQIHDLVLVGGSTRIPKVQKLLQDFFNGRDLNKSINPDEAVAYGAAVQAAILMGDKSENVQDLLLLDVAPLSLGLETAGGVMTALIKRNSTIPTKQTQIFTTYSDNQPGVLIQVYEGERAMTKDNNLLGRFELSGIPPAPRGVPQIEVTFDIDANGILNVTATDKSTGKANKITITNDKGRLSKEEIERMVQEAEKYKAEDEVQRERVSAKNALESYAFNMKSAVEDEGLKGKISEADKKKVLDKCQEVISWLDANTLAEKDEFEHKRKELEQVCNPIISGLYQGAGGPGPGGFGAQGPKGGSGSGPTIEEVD

Substance: NGFP alone (His-NGFP, from the construct NGFP-stop) (from UniProt P42212 1-157) (domain or fragment)
- fluorescence to OD600 ratio (arbitrary units/OD600) [1]: 200
- fluorescence to OD600 ratio (arbitrary units/OD600) [2]: 200

Substance: NGFP-471 (His-NGFP-471) (from UniProt P42212 1-157; P04851 471-525) (domain or fragment)
- fluorescence signal (fluorescence/OD600) (arbitrary units/OD600) [1]: 300

Substance: Nucleoprotein NTAIL NTAIL (from UniProt P35972)
- Kd [3]: 70 µM
